Measurements reported in paper PMC11535055, “ER-phagy restrains inflammatory responses through its receptor UBAC2” (The EMBO Journal, 2024).

B1: UBAC2, endogenous (natural protein, human (endogenous in HeLa, THP-1, HT-29), UniProt Q8NBM4 36-344, looked up)
chain: HCQKLFVYDLHAVKNDFQIWRLICGRIICLDLKDTFCSSLLIYNFRIFERRYGSRKFASFLLGSWVLSALFDFLLIEAMQYFFGITAASNLPSGFLAPVFALFVPFYCSIPRVQVAQILGPLSITNKTLIYILGLQLFTSGSYIWIVAISGLMSGLCYDSKMFQVHQVLCIPSWMAKFFSWTLEPIFSSSEPTSEARIGMGATLDIQRQQRMELLDRQLMFSQFAQGRRQRQQQGGMINWNRLFPPLRQRQNVNYQGGRQSEPAAPPLEVSEEQVARLMEMGFSRGDALEALRASNNDLNVATNFLLQH
notes: UBAC2 endogenous in human cell lines; also called ubiquitin-associated domain-containing protein 2; source: endogenous, lysates of HeLa cells, THP-1-derived macrophages and HT-29 cells
B2: UBAC2 S223D, transfected (cross-linking experiments) (natural protein, human, UniProt Q8NBM4 36-344, looked up)
chain: HCQKLFVYDLHAVKNDFQIWRLICGRIICLDLKDTFCSSLLIYNFRIFERRYGSRKFASFLLGSWVLSALFDFLLIEAMQYFFGITAASNLPSGFLAPVFALFVPFYCSIPRVQVAQILGPLSITNKTLIYILGLQLFTSGSYIWIVAISGLMSGLCYDSKMFQVHQVLCIPSWMAKFFSWTLEPIFDSSEPTSEARIGMGATLDIQRQQRMELLDRQLMFSQFAQGRRQRQQQGGMINWNRLFPPLRQRQNVNYQGGRQSEPAAPPLEVSEEQVARLMEMGFSRGDALEALRASNNDLNVATNFLLQH
notes: UBAC2, human; also called S223D mutant form of UBAC2
B3: UBAC2 wild type, transfected (cross-linking experiments) (natural protein, human, UniProt Q8NBM4 36-344, looked up)
chain: HCQKLFVYDLHAVKNDFQIWRLICGRIICLDLKDTFCSSLLIYNFRIFERRYGSRKFASFLLGSWVLSALFDFLLIEAMQYFFGITAASNLPSGFLAPVFALFVPFYCSIPRVQVAQILGPLSITNKTLIYILGLQLFTSGSYIWIVAISGLMSGLCYDSKMFQVHQVLCIPSWMAKFFSWTLEPIFSSSEPTSEARIGMGATLDIQRQQRMELLDRQLMFSQFAQGRRQRQQQGGMINWNRLFPPLRQRQNVNYQGGRQSEPAAPPLEVSEEQVARLMEMGFSRGDALEALRASNNDLNVATNFLLQH
notes: UBAC2, human; also called WT UBAC2

Legend:
GABARAP = GABARAP (UniProt O95166); experiment: co-IP Flag-GABARAP with HA-UBAC2; settings: reference: wild type; sites S223
[1] = target: the molecule itself; experiment: cross-linking; extracts of HeLa cells (also WT THP-1 macrophages and HT-29 cells) treated with TG or EBSS in the presence of Baf A1 (0.2 uM); 2 mM disuccinimidyl suberate (DSS), immunoblot for endogenous UBAC2
[2] = target: the molecule itself; experiment: cross-linking; 293T cells transfected with WT UBAC2 or S223 mutants, TG (1 uM, 1 h) or EBSS (3 h) with Baf A1 (0.2 uM), with scramble or MARK2 siRNA; lysates treated with 2 mM DSS, immunoblot

| Molecule | stoichiometry N [2] | other results |
| --- | --- | --- |
| UBAC2 (from UniProt Q8NBM4) S223A | – | binding against the reference (GABARAP): weaker |
| B1 | – | stoichiometry N [1]: 2 |
| B2 | 2 | – |
| B3 | 2 | – |
